According to PMC5433770, “Effect of N-terminal region of nuclear Drosophila melanogaster small heat shock protein DmHsp27 on function and quaternary structure” (PLoS ONE, 2017):
Substitutions are numbered along the chain they refer to. Numbers in names are those of the source.

B1: Drosophila melanogaster small heat shock protein DmHsp27, wild type (natural protein, UniProt P02518 1-213, looked up)
chain: MSIIPLLHLARELDHDYRTDWGHLLEDDFGFGVHAHDLFHPRRLLLPNTLGLGRRRYSPYERSHGHHNQMSRRASGGPNALLPAVGKDGFQVCMDVSQFKPNELTVKVVDNTVVVEGKHEEREDGHGMIQRHFVRKYTLPKGFDPNEVVSTVSSDGVLTLKAPPPPSKEQAKSERIVQIQQTGPAHLSVKAPAPEAGDGKAENGSGEKMETSK
notes: DmHsp27 (Hsp27), Drosophila melanogaster, wild-type cDNA; also called DmHsp27WT; Drosophila melanogaster Hsp27; source: E. coli BL21 (DE3) pLysS, purified (Ni-NTA, SEC on Superose 6)
B2: DmHsp27 S75D (natural protein, Drosophila melanogaster, UniProt P02518 1-213, looked up)
chain: B1 chain with S75D
notes: DmHsp27 (Hsp27), Drosophila melanogaster, with S75D; also called phosphomimetic mutant; source: E. coli BL21 (DE3) pLysS, purified (Ni-NTA, SEC on Superose 6)
B3: DmHsp27 G32R (natural protein, Drosophila melanogaster, UniProt P02518 1-213, looked up)
chain: B1 chain with G32R
notes: DmHsp27 (Hsp27), Drosophila melanogaster, with G32R; source: E. coli BL21 (DE3) pLysS, purified (Ni-NTA, SEC on Superose 6)
B4: DmHsp27 S58D (natural protein, Drosophila melanogaster, UniProt P02518 1-213, looked up)
chain: B1 chain with S58D
notes: DmHsp27 (Hsp27), Drosophila melanogaster, with S58D; also called phosphomimetic mutant; source: E. coli BL21 (DE3) pLysS, purified (Ni-NTA, SEC on Superose 6)
B5: DmHsp27 F29A (natural protein, Drosophila melanogaster, UniProt P02518 1-213, looked up)
chain: B1 chain with F29A
notes: DmHsp27 (Hsp27), Drosophila melanogaster, with F29A; source: E. coli BL21 (DE3) pLysS, purified (Ni-NTA, SEC on Superose 6)
B6: DmHsp27 F31A (natural protein, Drosophila melanogaster, UniProt P02518 1-213, looked up)
chain: B1 chain with F31A
notes: DmHsp27 (Hsp27), Drosophila melanogaster, with F31A; source: E. coli BL21 (DE3) pLysS, purified (Ni-NTA, SEC on Superose 6)
B7: DmHsp27 G30R (natural protein, Drosophila melanogaster, UniProt P02518 1-213, looked up)
chain: B1 chain with G30R
notes: DmHsp27 (Hsp27), Drosophila melanogaster, with G30R; source: E. coli BL21 (DE3) pLysS, purified (Ni-NTA, SEC on Superose 6)
B8: DmHsp27 S58/75D (natural protein, Drosophila melanogaster, UniProt P02518 1-213, looked up)
chain: B1 chain with S58D, S75D
notes: DmHsp27 (Hsp27), Drosophila melanogaster, with S58D and S75D; also called phosphomimetic mutant; source: E. coli BL21 (DE3) pLysS, purified (Ni-NTA, SEC on Superose 6)
B9: DmHsp27 S75A (natural protein, Drosophila melanogaster, UniProt P02518 1-213, looked up)
chain: B1 chain with S75A
notes: DmHsp27 (Hsp27), Drosophila melanogaster, with S75A; source: E. coli BL21 (DE3) pLysS, purified (Ni-NTA, SEC on Superose 6)
B10: DmHsp27 S58A (natural protein, Drosophila melanogaster, UniProt P02518 1-213, looked up)
chain: B1 chain with S58A
notes: DmHsp27 (Hsp27), Drosophila melanogaster, with S58A; source: E. coli BL21 (DE3) pLysS, purified (Ni-NTA, SEC on Superose 6)
B11: DmHsp27 S58/75A (natural protein, Drosophila melanogaster, UniProt P02518 1-213, looked up)
chain: B1 chain with S58A, S75A
notes: DmHsp27 (Hsp27), Drosophila melanogaster, with S58A and S75A; source: E. coli BL21 (DE3) pLysS, purified (Ni-NTA, SEC on Superose 6)
B12: DmHsp27 G30A (natural protein, Drosophila melanogaster, UniProt P02518 1-213, looked up)
chain: B1 chain with G30A
notes: DmHsp27 (Hsp27), Drosophila melanogaster, with G30A; source: E. coli BL21 (DE3) pLysS, purified (Ni-NTA, SEC on Superose 6)
B13: DmHsp27 F29Y (natural protein, Drosophila melanogaster, UniProt P02518 1-213, looked up)
chain: B1 chain with F29Y
notes: DmHsp27 (Hsp27), Drosophila melanogaster, with F29Y; source: E. coli BL21 (DE3) pLysS, purified (Ni-NTA, SEC on Superose 6)
B14: DmHsp27 F31Y (natural protein, Drosophila melanogaster, UniProt P02518 1-213, looked up)
chain: B1 chain with F31Y
notes: DmHsp27 (Hsp27), Drosophila melanogaster, with F31Y; source: E. coli BL21 (DE3) pLysS, purified (Ni-NTA, SEC on Superose 6)
B15: DmHsp27 G32A (natural protein, Drosophila melanogaster, UniProt P02518 1-213, looked up)
chain: B1 chain with G32A
notes: DmHsp27 (Hsp27), Drosophila melanogaster, with G32A; source: E. coli BL21 (DE3) pLysS, purified (Ni-NTA, SEC on Superose 6)
B16: DmHsp27 with deletion of the first 86 amino acids of the N-terminal region (Del_Nter) (domain or fragment, Drosophila melanogaster, UniProt P02518 87-213, looked up)
chain: KDGFQVCMDVSQFKPNELTVKVVDNTVVVEGKHEEREDGHGMIQRHFVRKYTLPKGFDPNEVVSTVSSDGVLTLKAPPPPSKEQAKSERIVQIQQTGPAHLSVKAPAPEAGDGKAENGSGEKMETSK
notes: DmHsp27 (Hsp27), Drosophila melanogaster, without the first 86 amino acids (N-terminal region); The Del-NTR forward primer carries an ATG before the codon of residue 87, so an added Met probably precedes residue 87 (surmise); also called DmHsp27Del-NTR; source: E. coli BL21 (DE3) pLysS, purified (Ni-NTA, SEC on Superose 6)
B17: DmHsp27 with deletion of the FGFG motif (29-32) (del_FGFG) (natural protein, Drosophila melanogaster, UniProt P02518 1-213, looked up)
chain: MSIIPLLHLARELDHDYRTDWGHLLEDDVHAHDLFHPRRLLLPNTLGLGRRRYSPYERSHGHHNQMSRRASGGPNALLPAVGKDGFQVCMDVSQFKPNELTVKVVDNTVVVEGKHEEREDGHGMIQRHFVRKYTLPKGFDPNEVVSTVSSDGVLTLKAPPPPSKEQAKSERIVQIQQTGPAHLSVKAPAPEAGDGKAENGSGEKMETSK
notes: DmHsp27 (Hsp27), Drosophila melanogaster, without the four residues F29 to G32 (FGFG); also called deletion FGFG (29–32); DmHsp27Del29-32; source: E. coli BL21 (DE3) pLysS, purified (Ni-NTA, SEC on Superose 6)

Target: the molecule itself
Experiment: native gel or EMSA; 4–12% gradient native Tris-Glycine gel; samples kept and gel run at room temperature (20°C), 150 V, Coomassie blue stain

| Protein | binding result |
| --- | --- |
| B1 | binds |
| B2 | binds |
| B3 | binds |
| B4 | binds |
| B5 | binds |
| B6 | binds |
| B7 | binds |
| B8 | binds |
| B9 | binds |
| B10 | binds |
| B11 | binds |
| B12 | binds |
| B13 | binds |
| B14 | binds |
| B15 | binds |
| B16 | binds |
| B17 | binds |
